A short description of data set [1]: DSF protein thermal shift assay (melting temperatures TM1/TM2). It is filed as physicochemical. Particulars: Table 8, humanized rabbit antibodies; TM2 = Fab domain. The protocol:
(§1) A protein thermal shift assay was carried out by mixing the protein to be assayed with an environmentally sensitive dye (SYPRO Orange, Life Technologies #S-6650) and monitoring the fluorescence of the mixture in real time as it underwent controlled thermal denaturation. Protein solutions between 0.2-2 mg/mL were mixed at a 1:1 volumetric ratio with a solution of SYPRO Orange solution diluted 250-fold in PBS+10% sucrose. 10 μL aliquots of the protein-dye mixture were dispensed in quadruplicate in a 384-well microplate (Bio-Rad #MSP-3852). The plate was sealed with an optically clear sealing film (Bio-Rad #MSB-1001) and placed in a 384-well plate real-time thermocycler (Bio-Rad CFX384 Real Time System). The protein-dye mixture was heated from 25° C. to 95° C., at increments of 0.2° C. per cycle, allowing 3 seconds of equilibration at each temperature before taking a fluorescence measurement. At the end of the experiment, the transition melting temperatures (TM1 and TM2) were determined using the Bio-Rad CFX manager software. TM1 represents the melting temperature of the Fc domain. TM2 represents the melting temperature of the Fab domain.
as §1, with “solutions at 1” for “solutions between 0.2-2”, “a 1-1” for “a 1:1”, “sucrose. 5” for “sucrose. 10”

For another data set, the system named is cynomolgus TF. The experiment in a line: Biacore off-rate and kinetic binding, cynomolgus TF. Particulars: Table 11, humanized rabbit antibodies; 100 nM antigen, 25° C. On the procedure: (§2) Anti-Fc polyclonal antibodies were immobilized onto a CM4 chip (Cytiva #BR100534) using amine coupling chemistry (Human Antibody Capture Kit, Cytiva #BR100839). The immobilization steps were carried out at a flow rate of 25 μL/min in 1×HBS-EP+buffer (Cytiva #BR100669). The sensor surfaces were activated for 7 min with a mixture of N-hydroxysuccinimide (NHS, 0.05 M) and 1-ethyl-3-(3-dimethylaminopropyl)-carbodiimide (EDC, 0.2 M). The anti-Fc polyclonal antibodies were injected over all 4 flow cells at a concentration of 25 μg/mL in 10 mM sodium acetate, pH 4.5, for 7 min. Ethanolamine (1 M, pH 8.5) was injected for 7 min to block any remaining activated groups. Approximately 6,000 response units (RU) of capture antibody was immobilized on each flow cell.
cynomolgus TF, sequence (as listed by the source): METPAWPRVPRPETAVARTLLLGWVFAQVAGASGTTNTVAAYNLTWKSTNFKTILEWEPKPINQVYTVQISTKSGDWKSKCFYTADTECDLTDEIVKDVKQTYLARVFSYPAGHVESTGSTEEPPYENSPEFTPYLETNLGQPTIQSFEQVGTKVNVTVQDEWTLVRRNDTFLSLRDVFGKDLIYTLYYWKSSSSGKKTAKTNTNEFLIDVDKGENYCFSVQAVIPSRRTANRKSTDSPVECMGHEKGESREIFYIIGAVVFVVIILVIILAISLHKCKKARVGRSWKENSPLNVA
(§3) Off-rate and kinetic binding experiments were performed at 25° C. using 1×HBS-EP+buffer. Antibodies were injected over the anti-Fc surface at a concentration of 3 μg/mL for 12 seconds at a flow rate of 10 μL/min on flow cells 2, 3 and 4, followed by a buffer wash for 30 seconds at the same flow rate. Single point off-rate analysis was carried out using an antigen concentration of 100 nM. […] After capturing ligand (antibody) on the anti-Fc surface, the analyte (human TF, Lake Pharma; cynomolgus TF, Sino Bio #90885-C08H; mouse TF, R&D Systems #3178-PA) was bound for 180 seconds, followed by a 420 second dissociation phase at a flow rate of 50 μL/min. Between each ligand capture and analyte binding cycle, regeneration was carried out using 2 injections of 10 mM glycine pH 2.0 for 30 seconds at 30 μL/min, followed by a 30 second buffer wash step.
(§4) The data were fit with the Biacore T200 Evaluation software, using a 1:1 Langmuir binding model. KD (affinity, nM) was determined as a ratio of the kinetic rate constants calculated from the fits of the association and dissociation phases.
(§5) Anti-Fc polyclonal antibodies were immobilized onto a CM4 chip (Cytiva #BR100534) using amine coupling chemistry (Human Antibody Capture Kit, Cytiva #BR100839). The immobilization steps were carried out at a flow rate of 25 μL/min in 1×HBS-EP+buffer (Cytiva #BR100669). The sensor surfaces were activated for 7 min with a mixture of NHS (0.05 M) and EDC (0.2 M). The Anti-Fc antibodies were injected over all 4 flow cells at a concentration of 25 ug/ml in 10 mM sodium acetate, pH 4.5, for 7 min. Ethanolamine (1 M, pH 8.5) was injected for 7 min to block any remaining activated groups. Approximately 6,000 response units (RU) of capture antibody was immobilized on each flow cell. Off-rate and kinetic binding experiments were performed at 25° C. using 1×HBS-EP+buffer. Antibodies or ADCs were injected over the anti-Fc surface at a concentration of 3 μg/mL for 12 seconds at a flow rate of 10 μL/min on flow cells 2, 3 and 4, followed by a buffer wash for 30 seconds at the same flow rate. […] After capturing ligand (antibody) on the anti-Fc surface, the analyte (human TF, Lake Pharma; cynomolgus TF, Sino Bio #90885-C08H; mouse TF, R&D Systems #3178-PA) was bound for 180 seconds, followed by a 420 second dissociation phase at a flow rate of 50 μL/min. Between each ligand capture and analyte binding cycle, regeneration was carried out using 2 injections of 10 mM Glycine pH 2.0 for 30 seconds at 30 μL/min, followed by a 30 second buffer wash step. The data was fit with the Biacore T200 Evaluation software, using a 1-1 Langmuir binding model. KD (affinity, nM) was determined as a ratio of the kinetic rate constants calculated from the fits of the association and dissociation phases.
For orientation: In SPR one partner is held on a chip, and binding of the other changes the refractive index at the surface.

For another data set, the target named is T1, human TF (Homo sapiens, UniProt P13726).
T1 construct: purchased Lake Pharma
T1 sequence (P13726 33-295): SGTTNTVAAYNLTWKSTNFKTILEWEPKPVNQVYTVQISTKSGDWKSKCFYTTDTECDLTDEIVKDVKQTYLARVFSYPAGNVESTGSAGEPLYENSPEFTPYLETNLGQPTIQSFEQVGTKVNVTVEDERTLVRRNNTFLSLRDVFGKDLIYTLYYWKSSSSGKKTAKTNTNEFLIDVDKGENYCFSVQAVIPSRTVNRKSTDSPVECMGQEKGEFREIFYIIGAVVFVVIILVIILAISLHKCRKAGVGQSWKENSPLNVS
The experiment in a line: Biacore off-rate and kinetic binding, human TF. Particulars: Table 11, humanized rabbit antibodies; 100 nM antigen, 25° C. On the procedure:
as §2, §3, §4, §5

Data on three molecules can be found in US12540197B2, “Anti-tissue factor antibodies and antibody conjugates, compositions comprising anti-tissue factor antibodies or antibody conjugates, and methods of making and using anti-tissue factor antibodies and antibody conjugates” (SUTRO BIOPHARMA, INC., priority 2023, dated 2026).

B1: 2842-B01 HC1/LC3 (antibody)
heavy: MQVQVVESGGGLVKPGGSLRLSCAASGFSISSYDMSWIRQAPGKGLEWIGIIGSNGRTYYADSVKGRFTISRNTNENTVYLQMNSLRAEDTAVYYCARGLYDGTGNIWGQGTLVTVSSASTKGPSVFPLAPSSKSTSGGTAALGCLVKDYFPEPVTVSWNSGALTSGVHTFPAVLQSSGLSLSSVVTVPSSSLGTQTYICNVNHKPSNTKVDKKVEPKSCDKTHTCPPCPAPELLGGPSVFLFPPKPKDTLMISRTPEVTCVVVDVSHEDPEVKFNWYVDGVEVHNAKTKPREEQYNSTYRVVSVLTVLHQDWLNGKEYKCKVSNKALPAPIEKTISKAKGQPREPQVYTLPPSREEMTKNQVSLTCLVKGFYPSDIAVEWESNGQPENNYKTTPPVLDSDGSFLYSKLTVDKSRWQQGNVFSCSVMHEALHNHYTQKSLSLSPGK
light: MDIQMTQSPSSLSASVGDRVTITCQASQSVYGNNWLSWYQQKPGKAPKLLIYGASKLASGVPSRFSGSGSGTDFTLTISSLQPEDFATYYCQGTYYSGDWYFAFGGGTKVEIKRTVAAPSVFIFPPSDEQLKSGTASVVCLLNNFYPREAKVQWKVDNALQSGNSQESVTEQDSKDSTYSLSSTLTLSKADYEKHKVYACEVTHQGLSSPVTKSFNRGEC
modifications: conjugated to LP1 at Y180/F404
As for B1, the “DSF TM2 (° C.)” value in data set [1] was 87.6 °C. The “Biacore cynomolgus TF single point off-rate kinetics kd” value in the data set on cynomolgus TF stood at 0.00117 s⁻¹. The “Biacore human TF single point off-rate kinetics kd” value with human TF is 0.00054 s⁻¹.

B2: 2842-B01 HC1/LC1 (antibody, V domains shown)
VH: MQVQVVESGGGLVKPGGSLRLSCAASGFSISSYDMSWIRQAPGKGLEWIGIIGSNGRTYYADSVKGRFTISRNTNENTVYLQMNSLRAEDTAVYYCARGLYDGTGNIWGQGTLVTVSS
VL: MDLQMTQSPSSLSASVGDRVTITCRASQSVYGNNWLSWYQQKPGKAPKLLIYGASKLASGVPSRFSGSGSGTQFTLTISSLQPEDFATYYCQGTYYSGDWYFAFGQGTKVEIK
On to B2, for which the “DSF TM2 (° C.)” value in data set [1] turned out to be 87.3 °C. In the data set on cynomolgus TF, the “Biacore cynomolgus TF single point off-rate kinetics kd” value turned out to be 0.00352 s⁻¹. For the same molecule, the “Biacore human TF single point off-rate kinetics kd” value with human TF was found to be 0.000727 s⁻¹.

B3: 2842-B01 HC1/LC2 (antibody, V domains shown)
VH: MQVQVVESGGGLVKPGGSLRLSCAASGFSISSYDMSWIRQAPGKGLEWIGIIGSNGRTYYADSVKGRFTISRNTNENTVYLQMNSLRAEDTAVYYCARGLYDGTGNIWGQGTLVTVSS
VL: MELVMTQSPPTLSLSPGERVTLSCRASQSVYGNNWLSWYQQKPGQAPRLLIYGASKLATSIPARFSGSGSGTQFTLTISSLQPEDFAVYYCQGTYYSGDWYFAFGQGTKVEIK
With B3, the “DSF TM2 (° C.)” value in data set [1] is 82.4 °C. Also, the “Biacore cynomolgus TF single point off-rate kinetics kd” value in the data set on cynomolgus TF was found to be 0.00142 s⁻¹. Also, the “Biacore human TF single point off-rate kinetics kd” value with human TF came out at 0.000691 s⁻¹.
